Experimental data from US20230167162A1 (TAMPERE UNIVERSITY FOUNDATION SR, published 2023).
Substitutions are numbered along the chain they refer to. Names may count otherwise. Ends that are not written are not given here.

T1: His-tagged neuropilin-1 b1b2 domain (NRP-1 WT) (UniProt O14786 273-586, limits assumed, FAM (5-(and-6)-carboxyfluorescein) label, amine-reactive dye)
T1 construct: domain: b1b2 domain; also called WT NRP-1; wild type NRP-1; not shown: His-tag
T1 sequence (looked up): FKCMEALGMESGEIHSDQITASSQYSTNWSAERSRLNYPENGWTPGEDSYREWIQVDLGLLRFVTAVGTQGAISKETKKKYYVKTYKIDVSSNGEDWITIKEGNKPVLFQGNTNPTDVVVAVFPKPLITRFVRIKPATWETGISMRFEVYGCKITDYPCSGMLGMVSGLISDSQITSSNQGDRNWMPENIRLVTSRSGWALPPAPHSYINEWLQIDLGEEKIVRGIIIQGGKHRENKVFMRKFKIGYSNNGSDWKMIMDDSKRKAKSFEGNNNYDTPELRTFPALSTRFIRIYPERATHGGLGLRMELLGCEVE

B1: triple mutant NS346A-E348A-T349A neuropilin-1 b1b2 domain (NRP-1 mutant) (receptor, UniProt O14786 273-586, looked up)
chain: T1 sequence (looked up) with S74A, E76A, T77A
modifications: FAM (5-(and-6)-carboxyfluorescein) label, amine-reactive dye
notes: domain: b1b2 domain; Printed as 'NS346A-E348A-T349A'; also called mutant NRP-1; not shown: His-tag

Legend:
[1] = biological target: T2, 6xHistag-DCN-tCRK fusion protein (human, UniProt P07585 31-359, glycosaminoglycan chain (mostly chondroitin sulfate) attached to the DCN core, residue not stated; FAM-labelled in the cell assay only); assay: ELISA: immobilised DCN-tCRK (100 µg/ml coating), FAM-labelled NRP-1 mutant, fluorescence intensity, compared with BSA control
T2 construct: Produced in HEK293F cells; Immobilised unlabelled on the plate in the ELISA; also called tCRK-DCN; FAM-DCN-tCRK
T2 sequence (P07585 other isoform, or with tags, fused parts or gaps): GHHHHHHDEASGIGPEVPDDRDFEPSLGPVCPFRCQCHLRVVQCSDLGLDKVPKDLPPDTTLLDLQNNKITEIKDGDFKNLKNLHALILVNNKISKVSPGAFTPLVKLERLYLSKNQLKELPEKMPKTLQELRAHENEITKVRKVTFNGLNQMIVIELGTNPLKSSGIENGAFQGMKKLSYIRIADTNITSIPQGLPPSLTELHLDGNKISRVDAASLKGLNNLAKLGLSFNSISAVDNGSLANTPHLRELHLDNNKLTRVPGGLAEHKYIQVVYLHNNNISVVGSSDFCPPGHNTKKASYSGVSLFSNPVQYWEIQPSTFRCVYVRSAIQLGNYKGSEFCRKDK
Description: (§1) In vitro binding of DCN-tCRK and peptides to NRP-1 was analyzed using ELISA analysis. 96-well, black FLUOTRAC™ 600, high binding plates (Greiner Bio-One, Kremsmünster, Austria) were coated with […] of 100 μg/ml DCN-tCRK in PBS at 4° C. overnight. 10 μg/well RPARPAR (SEQ ID NO: 25) and […] (SEQ ID NO: 26) peptides were coated in parallel as a positive and negative control, respectively. BSA was used as an immobilization control. The plates were washed 3 times with phosphate buffered saline (PBS) and blocked for 1 h at 37° C. with 300 μl of blocking solution (1×PBS, 1% BSA, 0.1% Tween-20). His-tagged neuropilin-1 b1b2 domain (NRP-1 WT) and triple mutant NS346A-E348A-T349A neuropilin-1 b1b2 domain (NRP-1 mutant) were expressed and purified at the Protein Production and Analysis Facility at the Sanford Burnham Prebys Medical Discovery Institute (La Jolla, Calif.) as described previously (Teesalu et al., 2009, PNAS 106:16157-16162). The recombinant proteins NRP1 WT, NRP1 mutant, and DCN-tCRK were FAM (5-(and-6)-Carboxyfluorescein, #90024, Biotium Inc, CA, USA) labeled by mixing 1:10 ratio of amine-reactive FAM dye (diluted in DMSO final concentration 0.2%) and protein. […] After adding 100 μl PBS in each well, the plate was immediately read with top read mode using a fluorescence reader (Flex Station II, Molecular Devices; peak excitation=485 nm, peak emission=530 nm, cut off=515).

[2] = biological target: T1, His-tagged neuropilin-1 b1b2 domain …; assay: ELISA: immobilised peptide (10 µg/well), FAM-labelled NRP-1, fluorescence intensity
Description: as §1

| Binder | binding result [1] | binding result [2] |
| --- | --- | --- |
| B1 | no binding (tested: 20 µg/well FAM-labelled NRP1 mutant) | – |
| RPARPARA (not fully specified, also called negative peptide) [RPARPARA peptide] | – | no binding (tested: 20 µg/well FAM-labelled NRP1 WT) |
